Laboratory results: patent publication US20240018502A1
Substitutions are numbered along the chain they refer to. Names and notes keep the numbering of the source. Each block holds one binder with its values, some of them ahead of it.

Experiments:
[1] = target: human complement protein C3 (human) (UniProt P01024); assay: cell-based or functional assay
[2] = target: plasma purified human complement protein C3 (human) (UniProt P01024); assay: cell-based or functional assay
Chain of plasma purified human complement protein C3 (human) (P01024 23-667, chain 1 of 2): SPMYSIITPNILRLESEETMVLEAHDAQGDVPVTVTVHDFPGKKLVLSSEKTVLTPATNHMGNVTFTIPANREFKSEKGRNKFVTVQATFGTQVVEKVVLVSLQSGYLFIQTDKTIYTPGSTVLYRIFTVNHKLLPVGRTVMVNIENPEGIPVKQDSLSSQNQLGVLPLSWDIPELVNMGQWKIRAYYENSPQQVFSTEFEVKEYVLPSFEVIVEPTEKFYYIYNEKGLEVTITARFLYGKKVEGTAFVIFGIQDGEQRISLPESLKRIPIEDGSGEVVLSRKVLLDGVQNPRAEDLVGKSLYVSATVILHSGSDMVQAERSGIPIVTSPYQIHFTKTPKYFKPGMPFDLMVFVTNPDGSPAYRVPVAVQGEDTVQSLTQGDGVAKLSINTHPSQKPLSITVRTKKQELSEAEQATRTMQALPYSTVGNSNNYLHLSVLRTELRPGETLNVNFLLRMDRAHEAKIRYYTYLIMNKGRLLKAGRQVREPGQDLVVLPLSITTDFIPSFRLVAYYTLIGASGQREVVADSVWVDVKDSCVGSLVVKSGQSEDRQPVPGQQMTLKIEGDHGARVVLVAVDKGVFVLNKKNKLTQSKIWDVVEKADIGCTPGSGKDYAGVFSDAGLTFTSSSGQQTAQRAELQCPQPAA
Chain of plasma purified human complement protein C3 (human) (P01024 672-1663, chain 2 of 2): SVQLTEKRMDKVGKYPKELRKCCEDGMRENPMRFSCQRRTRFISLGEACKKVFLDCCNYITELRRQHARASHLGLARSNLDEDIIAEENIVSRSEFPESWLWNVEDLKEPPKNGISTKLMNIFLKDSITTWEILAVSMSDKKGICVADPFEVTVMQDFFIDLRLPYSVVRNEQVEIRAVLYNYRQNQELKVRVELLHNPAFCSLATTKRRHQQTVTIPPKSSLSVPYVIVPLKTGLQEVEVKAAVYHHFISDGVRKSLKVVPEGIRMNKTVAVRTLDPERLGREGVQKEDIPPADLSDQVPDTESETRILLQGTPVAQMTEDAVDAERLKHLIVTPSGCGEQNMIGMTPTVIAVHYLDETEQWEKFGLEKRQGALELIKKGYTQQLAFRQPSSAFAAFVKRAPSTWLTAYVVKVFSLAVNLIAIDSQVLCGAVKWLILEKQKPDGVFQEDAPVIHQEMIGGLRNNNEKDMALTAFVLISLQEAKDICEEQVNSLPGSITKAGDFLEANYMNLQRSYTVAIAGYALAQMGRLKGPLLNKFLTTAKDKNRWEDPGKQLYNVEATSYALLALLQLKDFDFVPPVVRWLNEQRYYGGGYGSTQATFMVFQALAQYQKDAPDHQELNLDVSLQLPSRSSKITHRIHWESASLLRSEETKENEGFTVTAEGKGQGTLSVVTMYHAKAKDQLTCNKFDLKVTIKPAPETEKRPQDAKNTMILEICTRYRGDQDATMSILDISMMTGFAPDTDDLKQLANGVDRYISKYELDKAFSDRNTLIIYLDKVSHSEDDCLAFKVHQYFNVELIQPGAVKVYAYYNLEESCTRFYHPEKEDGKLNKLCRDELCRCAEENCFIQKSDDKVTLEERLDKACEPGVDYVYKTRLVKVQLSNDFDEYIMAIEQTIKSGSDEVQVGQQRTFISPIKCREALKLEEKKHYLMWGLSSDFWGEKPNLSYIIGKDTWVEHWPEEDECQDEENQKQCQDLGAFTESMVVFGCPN

Chain of human complement protein C3 (human) (P01024 23-667, chain 1 of 2): as the sequence (P01024 23-667, chain 1 of 2) above
Chain of human complement protein C3 (human) (P01024 672-1663, chain 2 of 2): as the sequence (P01024 672-1663, chain 2 of 2) above

B1: Q38G/H40R/I41H/D60bN/F97D/F99L/C122S/Q175L/Q192G (enzyme)
chain: VVGGTDADEGEWPWQVSLHALGGGRHCGASLISPNWLVSAAHCYIDNRGFRYSDPTQWTAFLGLHDQSQRSAPGVQERRLKRIISHPFFNDDTLDYDIALLELEKPAEYSSMVRPISLPDASHVFPAGKAIWVTGWGHTQYGGTGALILQKGEIRVINQTTCENLLPQLITPRMMCVGFLSGGVDSCGGDSGGPLSSVEADGRIFQAGVVSWGDGCAQRNKPGVYTRLPLFRDWIKENTGV
EC50 (nM), cleavage of purified hC3 in vitro [1]: 0.867 nM

B2: MTSP-1 H40R/I41H/F97D/F99L/C122S/Q175L/Q192G/D217K/K224A (enzyme)
chain: B1 chain with G23Q, N47D, D214K, K221A
EC50 of hC3 cleavage [2]: 14.1 nM

B3: MTSP-1 H40R/I41H/F97D/F99L/C122S/Q175K/Q192G/D217I/K224H (enzyme)
chain: B1 chain with G23Q, N47D, L169K, D214I, K221H
EC50 of hC3 cleavage [2]: 19.4 nM

B7: MTSP-1 H40K/I41L/Y60gF/F97D/F99L/C122S/G151N/Q175R (enzyme)
chain: B1 chain with G23Q, R25K, H26L, N47D, Y52F, G145N, L169R, G188Q
EC50 of hC3 cleavage [2]: 237 nM

B11: MTSP-1 H40R/I41H/F97D/F99L/C122S/G151D/Q175M/Q192G/D217V (enzyme)
chain: B1 chain with G23Q, N47D, G145D, L169M, D214V
EC50 of hC3 cleavage [2]: 70.8 nM

B12: MTSP-1 H40R/I41H/F97D/C122S/G151N/Q175M/Q192A/D217S/K224R (enzyme)
chain: B1 chain with G23Q, N47D, L94F, G145N, L169M, G188A, D214S, K221R
EC50 of hC3 cleavage [2]: 470 nM

B13: MTSP-1 H40R/I41H/F97D/F99L/C122S/Q175M/Q192G/D217V/K224Y (enzyme)
chain: B1 chain with G23Q, N47D, L169M, D214V, K221Y
EC50 of hC3 cleavage [2]: 2.76 nM

B14: MTSP-1 H40R/I41H/F97D/F99L/C122S/Q175M/Q192G/D217S (enzyme)
chain: B1 chain with G23Q, N47D, L169M, D214S
EC50 of hC3 cleavage [2]: 24.4 nM

B15: MTSP-1 H40K/I41M/Y60gF/F97D/F99L/C122S/G151N/Q175L/Q192D (enzyme)
chain: B1 chain with G23Q, R25K, H26M, N47D, Y52F, G145N, G188D
EC50 of hC3 cleavage [2]: 589 nM

B18: MTSP-1 H40K/I41M/Y60gG/F97D/F99L/C122S/G151N/Q175R/Q192R/D217V/K224S (enzyme)
chain: B1 chain with G23Q, R25K, H26M, N47D, Y52G, G145N, L169R, G188R, D214V, K221S
EC50 of hC3 cleavage [2]: 509 nM

B20: Q38H/I41A/D60bV/F60eR/Y60gW/D96P/ins97aN/F97W/T98G/F99L/C122S/G151H/Q175L/Q192E (enzyme)
chain: VVGGTDADEGEWPWQVSLHALGHGHACGASLISPNWLVSAAHCYIDVRGRRWSDPTQWTAFLGLHDQSQRSAPGVQERRLKRIISHPFFNPWNGLDYDIALLELEKPAEYSSMVRPISLPDASHVFPAGKAIWVTGWGHTQYGGTHALILQKGEIRVINQTTCENLLPQLITPRMMCVGFLSGGVDSCEGDSGGPLSSVEADGRIFQAGVVSWGDGCAQRNKPGVYTRLPLFRDWIKENTGV
EC50 (nM), cleavage of purified hC3 in vitro [1]: 1.11 nM

B21: Q38H/I41S/D60bT/F60eS/Y60gW/D96L/ins97aG/F97D/T98N/F99L/C122S/G151H/Q175L/Q192E (enzyme)
chain: B20 chain with A26S, V47T, R50S, P91L, W92D, N93G, G94N
EC50 (nM), cleavage of purified hC3 in vitro [1]: 1.59 nM

The remaining lines, values ahead:

EC50 of hC3 cleavage [2]: 19.8 nM
B4: MTSP-1 H40R/I41H/Y60gH/F97D/F99L/C122S/G151N/Q175A/Q192H/D217I/K224R (enzyme)
chain: B1 chain with G23Q, N47D, Y52H, G145N, L169A, G188H, D214I, K221R

EC50 of hC3 cleavage [2]: 3.72 nM
B5: MTSP-1 H40R/I41H/Y60gH/F97D/F99L/C122S/Q175M/Q192G/D217I/K224L (enzyme)
chain: B1 chain with G23Q, N47D, Y52H, L169M, D214I, K221L

EC50 of hC3 cleavage [2]: 7.94 nM
B6: MTSP-1 H40R/I41H/Y60gH/F97D/F99L/C122S/Q175M/Q192G/D217I/K224R (enzyme)
chain: B1 chain with G23Q, N47D, Y52H, L169M, D214I, K221R

EC50 of hC3 cleavage [2]: 25.9 nM
B8: MTSP-1 H40R/I41H/Y60gF/F97D/F99L/C122S/Q192G/D217R/K224A (enzyme)
chain: B1 chain with G23Q, N47D, Y52F, L169Q, D214R, K221A

EC50 of hC3 cleavage [2]: 54.9 nM
B9: MTSP-1 H40R/I41H/Y60gL/F97D/F99L/C122S/G151N (enzyme)
chain: B1 chain with G23Q, N47D, Y52L, G145N, L169Q, G188Q

EC50 of hC3 cleavage [2]: 187 nM
B10: MTSP-1 H40R/I41H/Y60gN/F97D/F99L/C122S/G151N/Q175K/Q192S/D217S/K224L (enzyme)
chain: B1 chain with G23Q, N47D, Y52N, G145N, L169K, G188S, D214S, K221L

EC50 of hC3 cleavage [2]: 9.92 nM
B16: MTSP-1 H40R/I41H/Y60gF/F97D/F99L/C122S/Q175M/Q192G/D217W/K224R (enzyme)
chain: B1 chain with G23Q, N47D, Y52F, L169M, D214W, K221R

EC50 of hC3 cleavage [2]: 24.1 nM
B17: MTSP-1 H40R/I41H/F97D/F99L/Q192G (enzyme)
chain: B1 chain with G23Q, N47D, S117C, L169Q

EC50 of hC3 cleavage [2]: 38 nM
B19: MTSP-1 H40R/I41H/Y60gF/F97D/F99L/C122S/Q192G/D217M/K224R (enzyme)
chain: B1 chain with G23Q, N47D, Y52F, L169Q, D214M, K221R
